Assays:
[1] = molecular target: the molecule itself; assay: SEC; Superdex 200 column, 20 mM Tris-HCl pH 7.5, 150 mM NaCl, 1 mM DTT, 0.5% NP-40, 1 ml/min; mass estimated from standard proteins
[2] = molecular target: the molecule itself; assay: cross-linking; 3, 5 or 10 ug of purified rhGFAT2-his in PBS with 1 mM EGS, 30 min, room temperature; stopped with 30 mM Tris-HCl pH 8.0; gradient SDS-PAGE, Coomassie staining

B1: recombinant human glutamine:fructose-6-phosphate amidotransferase 2 with a C-terminal 6xHisTag (rhGFAT2-his) (enzyme, UniProt O94808 2-682, looked up)
chain: CGIFAYMNYRVPRTRKEIFETLIKGLQRLEYRGYDSAGVAIDGNNHEVKERHIQLVKKRGKVKALDEELYKQDSMDLKVEFETHFGIAHTRWATHGVPSAVNSHPQRSDKGNEFVVIHNGIITNYKDLRKFLESKGYEFESETDTETIAKLIKYVFDNRETEDITFSTLVERVIQQLEGAFALVFKSVHYPGEAVATRRGSPLLIGVRSKYKLSTEQIPILYRTCTLENVKNICKTRMKRLDSSACLHAVGDKAVEFFFASDASAIIEHTNRVIFLEDDDIAAVADGKLSIHRVKRSASDDPSRAIQTLQMELQQIMKGNFSAFMQKEIFEQPESVFNTMRGRVNFETNTVLLGGLKDHLKEIRRCRRLIVIGCGTSYHAAVATRQVLEELTELPVMVELASDFLDRNTPVFRDDVCFFISQSGETADTLLALRYCKDRGALTVGVTNTVGSSISRETDCGVHINAGPEIGVASTKAYTSQFISLVMFGLMMSEDRISLQNRRQEIIRGLRSLPELIKEVLSLEEKIHDLALELYTQRSLLVMGRGYNYATCLEGALKIKEITYMHSEGILAGELKHGPLALIDKQMPVIMVIMKDPCFAKCQNALQQVTARQGRPIILCSKDDTESSKFAYKTIELPHTVDCLQGILSVIPLQLLSFHLAVLRGYDVDFPRNLAKSVTVE
notes: human glutamine:fructose-6-phosphate amidotransferase 2 (hGFAT2), product of the gfpt2 gene; The His tag comes from pET23a after the NotI site; Mostly a tetramer by SEC, with higher oligomers up to octamers; also called rhGFAT-his; source: E. coli Codon plus, soluble fraction, purified (Ni-NTA HisTrap column); not shown: His6, C-terminal, kept
stoichiometry N [1]: ≤ 8 | stoichiometry N [2]: 4
